From publication PMC6075780, “Interaction of lipoprotein QseG with sensor kinase QseE in the periplasm controls the phosphorylation state of the two-component system QseE/QseF in Escherichia coli” (PLoS Genetics, 2018)

B1: T25-QseE [E. coli K-12] / T18-TM_(oppB)-QseG [E. coli K-12] (parent complex)
chain 1: MKRWPVFPRSLRQLVMLAFLLILLPLLVLAWQAWQSLNALSDQAALVNRTTLIDARRSEAMTNAALEMERSYRQYCVLDDPTLAKVYQSQRKRYSEMLDAHAGVLPDDKLYQALRQDLHNLAQLQCNNSGPDAAAAARLEAFASANTEMVQATRTVVFSRGQQLQREIAERGQYFGWQSLVLFLVSLVMVLLFTRMIIGPVKNIERMINRLGEGRSLGNSVSFSGPSELRSVGQRILWLSERLSWLESQRHQFLRHLSHELKTPLASMREGTELLADQVVGPLTPEQKEVVSILDSSSRNLQKLIEQLLDYNRKQADSAVELENVELAPLVETVVSAHSLPARAKMMHTDVDLKATACLAEPMLLMSVLDNLYSNAVHYGAESGNICLRSSLHGARVYIDVINTGTPIPQEERAMIFEPFFQGSHQRKGAVKGSGLGLSIARDCIRRMQGELYLVDESGQDVCFRIELPSSKNTK
chain 2: CVQNHNKPAIDTPAEEKIPVYQLADYLSTECSDIWALQGKSTETNPLYWLRAMDCADRLMPAQSRQQARQYDDGSWQNTFKQGILLADAKITPYERRQLVARIEALSTEIPAQVRPLYQLWRDGQALQLQLAEERQRYSKLQQSSDSELDTLRQQHHVLQQQLELTTRKLENLTDIERQLSTRKPAGNFSPDTPHESEKPAPSTHEVTPDEP

Variants of: B1
Test: BACTH assay (bacterial two-hybrid, β-galactosidase read-out); reporter strain BTH101; plasmids pYG242/pYG199_TM1; parent: 1.6e+03; read off a plot

Variant | response
chain 1 MKRWPVFPRSLRQLVMLALLHRPPPLLVLAWQAWQSLNALSDQAALVNRTTLIDARRSEAMTNAALEMERSYRQYCVLDDPTLAKVYQSQRKRYSEMLDAHAGVLPDDKLYQALRQDLHNLAQLQCNNSGPDAAAAARLEAFASANTEMVQATRTVVFSRGQQLQREIAERGQYFGWQSLVLFLVSLVMVLLFTRMIIGPVKNIERMINRLGEGRSLGNSVSFSGPSELRSVGQRILWLSERLSWLESQRHQFLRHLSHELKTPLASMREGTELLADQVVGPLTPEQKEVVSILDSSSRNLQKLIEQLLDYNRKQADSAVELENVELAPLVETVVSAHSLPARAKMMHTDVDLKATACLAEPMLLMSVLDNLYSNAVHYGAESGNICLRSSLHGARVYIDVINTGTPIPQEERAMIFEPFFQGSHQRKGAVKGSGLGLSIARDCIRRMQGELYLVDESGQDVCFRIELPSSKNTK [chain 1 F19L, chain 1 L21H, chain 1 I22R, chain 1 L23P, chain 1 L24P] | ~70 Miller units

Variants of: B1
Test: BACTH assay (bacterial two-hybrid, β-galactosidase read-out); reporter strain BTH101; plasmids pYG242/pYG199_1.6; parent: 1.6e+03; read off a plot

Variant | response
chain 1 MKRWPVFPRSLRQLVMLAFLLILLPLLVLAWQAWQSLNALSDQAALVNRTTLIDARRNEAMTNAALEMERSYRQYCVLDDPTLAKVYQSQRKRYSEMLDAHAGVLPDDKLYQALRQDLHNLAQLQCNNSGPDAAAAARLEAFASANTEMVQATRTVVFSRGQQLQREIAERGQYFGWQSLVLFLVSLVMVLLFTRMIIGPVKNIERMINRLGEGRSLGNSVSFSGPSELRSVGQRILWLSERLSWLESQRHQFLRHLSHELKTPLASMREGTELLADQVVGPLTPEQKEVVSILDSSSRNLQKLIEQLLDYNRKQADSAVELENVELAPLVETVVSAHSLPARAKMMHTDVDLKATACLAEPMLLMSVLDNLYSNAVHYGAESGNICLRSSLHGARVYIDVINTGTPIPQEERAMIFEPFFQGSHQRKGAVKGSGLGLSIARDCIRRMQGELYLVDESGQDVCFRIELPSSKNTK [chain 1 S58N] | ~250 Miller units
